According to patent publication US20080090254:

B1: ErbB4 Kinase (protein)
chain: RRKSIKKKRALRRFLETELVEPLTPSGTAPNQAQLRILKETELKRVKVLGSGAFGTVYKGIWVPEGETVKIPVAIKILNETTGPKANVEFMDEALIMASMDHPHLVRLLGVCLSPTIQLVTQLMPHGCLLEYVHEHKDNIGSQLLLNWCVQIAKGMMYLEERRLVHRDLAARNVLVKSPNHVKITDFGLARLLEGDEKEYNADGGKMPIKWMALECIHYRKFTHQSDVWSYGVTIWELMTFGGKPYDGIPTREIPDLLEKGERLPQPPICTIDVYMVMVKCWMIDADSRPKFKELAAEFSRMARDPQRYLVIQGDDRMKLPSPNDSKFFQNLLDEEDLEDMMDAEEYLVPQAFNIPPPIYTSRARIDSNRSEIGHSPPPAYTPMSGNQFVYRDGGFAAEQGVSVPYRAPTSTIPEAPVAQGATAEIFDDSCCNGTLRKPVAPHVQEDSSTQRYSADPTVFAPERSPRGELDEEGYMTPMRDKPKQEYLNPVEENPFVSRRKNGDLQALDNPEYHNASNGPPKAEDEYVNEPLYLNTFANTLGKAEYLKNNILSMPEKAKKAFDNPDYWNHSLPPRSTLQHPDYLQEYSTKYFYKQNGRIRPIVAENPEYLSEFSLKPGTVLPPPPYRHRNTVV
B2: PDGF Receptor β Kinase (protein)
chain: RYEIRWKVIESVSSDGHEYIYVDPMQLPYDSTWELPRDQLVLGRTLGSGAFGQVVEATAHGLSHSQATMKVAVKMLKSTARSSEKQALMSELKIMSHLGPHLNVVNLLGACTKGGPIYIITEYCRYGDLVDYLHRNKHTFLQHHSDKRRPPSAELYSNALPVGLPLPSHVSLTGESDGGYMDMSKDESVDYVPMLDMKGDVKYADIESSNYMAPYDNYVPSAPERTCRATLINESPVLSYMDLVGFSYQVANGMEFLASKNCVHRDLAARNVLICEGKLVKICDFGLARDIMRDSNYISKGSTFLPLKWMAPESIFNSLYTTLSDVWSFGILLWEIFTLGGTPYPELPMNEQFYNAIKRGYRMAQPAHASDEIYEIMQKCWEEKFEIRPPFSQLVLLLERLLGEGYKKKYQQVDEEFLRSDHPAILRSQARLPGFHGLRSPLDTSSVLYTAVQPNEGDNDYIIPLPDPKPEVADEGPLEGSPSLASSTLNEVNTSSTISCDSPLEPQDEPEPEPQLELQVEPEPELEQLPDSGCPAPRAEAEDSFL
B3: IGF-1Receptor Kinase (protein)
chain: RKRNNSRLGNGVLYASVNPEYFSAADVYVPDEWEVAREKITMSRELGQGSFGMVYEGVAKGVVKDEPETRVAIKTVNEAASMRERIEFLNEASVMKEFNCHHVVRLLGVVSQGQPTLVIMELMTRGDLKSYLRSLRPEMENNPVLAPPSLSKMIQMAGEIADGMAYLNANKFVHRDLAARNCMVAEDFTVKIGDFGMTRDIYETDYYRKGGKGLLPVRWMSPESLKDGVFTTYSDVWSFGVVLWEIATLAEQPYQGLSNEQVLRFVMEGGLLDKPDNCPDMLFELMRMCWQYNPKMRPSFLEIISSIKEEMEPGFREVSFYYSEENKLPEPEELDLEPENMESVPLDPSASSSSLPLPDRHSGHKAENGPGPGVLVLRASFDERQPYAHMNGGRKNERALPLPQSSTC
B4: VEGF Receptor 1 Kinase (protein)
chain: RKMKRSSSEIKTDYLSIIMDPDEVPLDEQCERLPYDASKWEFARERLKLGKSLGRGAFGKVVQASAFGIKKSPTCRTVAVKMLKEGATASEYKALMTELKILTHIGHHLNVVNLLGACTKQGGPLMVIVEYCKYGNLSNYLKSKRDLFFLNKDAALHMEPKKEKMEPGLEQGKKPRLDSVTSSESFASSGFQEDKSLSDVEEEEDSDGFYKEPITMEDLISYSFQVARGMEFLSSRKCIHRDLAARNILLSENNVVKICDFGLARDIYKNPDYVRKGDTRLPLKWMAPESIFDKIYSTKSDVWSYGVLLWEIFSLGGSPYPGVQMDEDFCSRLREGMRMRAPEYSTPEIYQIMLDCWHRDPKERPRFAELVEKLGDLLQANVQQDGKDYIPINAILTGNSGFTYSTPAFSEDFFKESISAPKFNSGSSDDVRYVNAFKFMSLERIKTFEELLPNATSMFDDYQGDSSTLLASPMLKRFTWTDSKPKASLKIDLRVTSKSKESGLSDVSRPSFCHSSCGHVSEGKRRFTYDHAELERKIACCSPPPDYNSVVLYSTPPI

Each protein was assayed against GST-poly(Glu, Tyr) substrate.
Sequence of GST-poly(Glu, Tyr) substrate (chain, as listed by the source): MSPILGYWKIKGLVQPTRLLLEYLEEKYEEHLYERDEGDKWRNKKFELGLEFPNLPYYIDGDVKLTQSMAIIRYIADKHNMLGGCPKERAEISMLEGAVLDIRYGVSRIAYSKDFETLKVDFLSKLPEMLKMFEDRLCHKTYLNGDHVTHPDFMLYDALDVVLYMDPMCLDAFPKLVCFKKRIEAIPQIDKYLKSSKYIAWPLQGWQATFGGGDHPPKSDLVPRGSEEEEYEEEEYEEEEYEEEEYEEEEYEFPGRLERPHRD
With B1 the “phosphorylation of the substrate, Western blotting with anti-phosphotyrosine” value (“phosphorylation of the substrate” below) was “At + of all (i to vii) of FIG. 1, a single band was seen at positions where the phosphorylated GST-poly (Glu, Tyr) substrate appears”.
B2 was tested, and the “phosphorylation of the substrate” value was “At + of all (i to vii) of FIG. 1, a single band was seen at positions where the phosphorylated GST-poly (Glu, Tyr) substrate appears”.
For B3, the “phosphorylation of the substrate” value was “At + of all (i to vii) of FIG. 1, a single band was seen at positions where the phosphorylated GST-poly (Glu, Tyr) substrate appears”.
With B4 the “phosphorylation of the substrate” value was “At + of all (i to vii) of FIG. 1, a single band was seen at positions where the phosphorylated GST-poly (Glu, Tyr) substrate appears”.
